Source: patent US9637764B2, “Methods of producing 7-carbon chemicals via carbon chain elongation associated with cyclohexane carboxylate synthesis” (INVISTA North America S.á r.l., priority 2012, dated 2017)

What was measured:
Type in all cases: biochemical
[1] = Carboxylate reductase activity assay, pimelate semialdehyde to heptanedial (NADPH consumption, absorbance at 340 nm); details: purified enzyme enhanced by the gene product of sfp, 2 mM pimelate semialdehyde, 1 mM ATP, 1 mM NADPH, pH=7.5, room temperature, 20 min; against the empty vector control; FIG. 13
Description: The N-terminal His-tagged carboxylate reductase of SEQ ID NO 7 (see Example 4 and FIG. 7F) was assayed using pimelate semialdehyde as substrate. The enzyme activity assay was performed in triplicate in a buffer composed of a final concentration of 50 mM HEPES buffer (pH=7.5), 2 mM pimelate semialdehyde, 10 mM MgCl2, 1 mM ATP and 1 mM NADPH. The enzyme activity assay reaction was initiated by adding purified carboxylate reductase and phosphopantetheine transferase or the empty vector control to the assay buffer containing the pimelate semialdehyde and then incubated at room temperature for 20 min. The consumption of NADPH was monitored by absorbance at 340 nm.

[2] = Carboxylate reductase activity assay, N7-acetyl-7-aminoheptanoate to N7-acetyl-7-aminoheptanal (NADPH consumption, absorbance at 340 nm); details: purified enzyme enhanced by the gene product of sfp, 2 mM N7-acetyl-7-aminoheptanoate, 1 mM ATP, 1 mM NADPH, pH=7.5, room temperature, 20 min; against the empty vector control; FIG. 12
Description: The activity of each of the N-terminal His-tagged carboxylate reductases of SEQ ID NOs: 3, 6, and 7 (see Examples 4, and FIGS. 7B, 7E, and 7F) for converting N7-acetyl-7-aminoheptanoate to N7-acetyl-7-aminoheptanal was assayed in triplicate in a buffer composed of a final concentration of 50 mM HEPES buffer (pH=7.5), 2 mM N7-acetyl-7-aminoheptanoate, 10 mM MgCl2, 1 mM ATP, and 1 mM NADPH. The assays were initiated by adding purified carboxylate reductase and phosphopantetheine transferase or the empty vector control to the assay buffer containing the N7-acetyl-7-aminoheptanoate then incubated at room temperature for 20 min. The consumption of NADPH was monitored by absorbance at 340 nm.

[3] = Carboxylate reductase activity assay, pimelate to pimelate semialdehyde (NADPH consumption, absorbance at 340 nm); details: purified enzyme enhanced by the gene product of sfp, 2 mM pimelate, 1 mM ATP, 1 mM NADPH, pH=7.5, room temperature, 20 min; against the empty vector control; FIG. 10
Description: A sequence encoding a HIS-tag was added to the genes from Segniliparus rugosus and Segniliparus rotundus that encode the carboxylate reductases of SEQ ID NOs: 4 and 7, respectively (see FIGS. 7C and 7F), such that N-terminal HIS tagged carboxylate reductases could be produced. Each of the modified genes was cloned into a pET Duet expression vector along with a sfp gene encoding a HIS-tagged phosphopantetheine transferase from Bacillus subtilis, both under the T7 promoter. Each expression vector was transformed into a BL21[DE3] E. coli host and the resulting recombinant E. coli strains were cultivated at 37° C. in a 250 mL shake flask culture containing 50 mL LB media and antibiotic selection pressure, with shaking at 230 rpm. Each culture was induced overnight at 37° C. using an auto-induction media.
The pellet from each induced shake flask culture was harvested via centrifugation. Each pellet was resuspended and lysed via sonication, and the cell debris was separated from the supernatant via centrifugation. […]
Enzyme activity assays (i.e., from pimelate to pimelate semialdehyde) were performed in triplicate in a buffer composed of a final concentration of 50 mM HEPES buffer (pH=7.5), 2 mM pimelate, 10 mM MgCl2, 1 mM ATP and 1 mM NADPH. […] The consumption of NADPH was monitored by absorbance at 340 nm.

B1: SEQ ID NO 7: Segniliparus rotundus carboxylate reductase, Genbank Accession No. ADG98140.1 (protein, listed as Segniliparus rotundus)
chain: MTQSHTQGPQASAAHSRLARRAAELLATDPQAAATLPDPEVVRQATRPGLRLAERVDAILSGYADRPALGQRSFQTVKDPITGRSSVELLPTFDTITYRELRERATAIASDLAHHPQAPAKPGDFLASIGFISVDYVAIDIAGVFAGLTAVPLQTGATLATLTAITAETAPTLFAASIEHLPTAVDAVLATPSVRRLLVFDYRAGSDEDREAVEAAKRKIADAGSSVLVDVLDEVIARGKSAPKAPLPPATDAGDDSLSLLIYTSGSTGTPKGAMYPERNVAHFWGGVWAAAFDEDAAPPVPAINITFLPLSHVASRLSLMPTLARGGLMHFVAKSDLSTLFEDLKLARPTNLFLVPRVVEMLYQHYQSELDRRGVQDGTREAEAVKDDLRTGLLGGRILTAGFGSAPLSAELAGFIESLLQIHLVDGYGSTEAGPVWRDGYLVKPPVTDYKLIDVPELGYFSTDSPHPRGELAIKTQTILPGYYKRPETTAEVFDEDGFYLTGDVVAQIGPEQFAYVDRRKNVLKLSQGEFVTLAKLEAAYSSSPLVRQLFVYGSSERSYLLAVIVPTPDALKKFGVGEAAKAALGESLQKIARDEGLQSYEVPRDFIIETDPFTVENGLLSDARKSLRPKLKEHYGERLEAMYKELADGQANELRDIRRGVQQRPTLETVRRAAAAMLGASAAEIKPDAHFTDLGGDSLSALTFSNFLHDLFEVDVPVGVIVSAANTLGSVAEHIDAQLAGGRARPTFATVHGKGSTTIKASDLTLDKFIDEQTLEAAKHLPKPADPPRTVLLTGANGWLGRFLALEWLERLAPAGGKLITIVRGKDAAQAKARLDAAYESGDPKLAGHYQDLAATTLEVLAGDFSEPRLGLDEATWNRLADEVDFISHPGALVNHVLPYNQLFGPNVAGVAEIIKLAITTRIKPVTYLSTVAVAAGVEPSALDEDGDIRTVSAERSVDEGYANGYGNSKWGGEVLLREAHDRTGLPVRVFRSDMILAHQKYTGQVNATDQFTRLVQSLLATGLAPKSFYELDAQGNRQRAHYDGIPVDFTAESITTLGGDGLEGYRSYNVFNPHRDGVGLDEFVDWLIEAGHPITRIDDYDQWLSRFETSLRGLPESKRQASVLPLLHAFARPGPAVDGSPFRNTVFRTDVQKAKIGAEHDIPHLGKALVLKYADDIKQLGLL
With B1 the “carboxylate reductase activity for converting pimelate semialdehyde to heptanedial” value [1] was “accepted pimelate semialdehyde as substrate”, the “carboxylate reductase activity for converting N7-acetyl-7-aminoheptanoate to N7-acetyl-7-aminoheptanal” value [2] was “accepted N7-acetyl-7-aminoheptanoate as substrate” and the “carboxylate reductase activity for converting pimelate to pimelate semialdehyde” value [3] was “accepted pimelate as substrate”.
